# Substitutions are numbered along the chain they refer to.
# B1: At GMD M4: mutant Arabidopsis thaliana GMD targeting the GDP-L-fucose allosteric binding pocket, SEQ ID NO: 79 (protein)
# chain: MASENNGSRSDSESITAPKADSTVVEPRKIALITGITGQDGSYLTEFLLGKGYEVHGLIRRSSNFNTQRINHIYIDPHNVNKALMKLHYADLTDASSLRRWIDVIKPDEVYNLAAQSHVAVSFEIPDYTADVVATGALRLLEAVRSHTIDSGRTVKYYQAGSSEMFGSTPPPQSETTPFHPRSPYAASKCAAHWYTVNYREAYGLFACNGILFNHESPRRGENFVTRKITAALGRIKVGLQTKLFLGNLQASRDWGFAGDYVEAMWLMLQQEKPDDYVVATEEGHTVEEFLDVSFGYLGLNWKDYVEIDQRYFRPAEVDNLQGDASKAKEVLGWKPQVGFEKLVKMMVDEDLELAKREKVLVDAGYMDAKQQP
# modifications: Arabidopsis thaliana GMD mutant
# B2: At GMD M3: mutant Arabidopsis thaliana GMD targeting the GDP-L-fucose allosteric binding pocket, SEQ ID NO: 77 (protein)
# chain: B1 chain with K228A, A231R
# modifications: Arabidopsis thaliana GMD mutant
# B3: At GMD M2: mutant Arabidopsis thaliana GMD targeting the GDP-L-fucose allosteric binding pocket, SEQ ID NO: 75 (protein)
# chain: B1 chain with H78A, A231R
# modifications: Arabidopsis thaliana GMD mutant
# B4: Ec WT: GDP-mannose-4,6-dehydratase from Escherichia coli, wild type, SEQ ID NO: 11 (protein, listed as Escherichia coli)
# chain: MSKVALITGVTGQDGSYLAEFLLEKGYEVHGIKRRASSFNTERVDHIYQDPHTCNPKFHLHYGDLSDTSNLTRILREVQPDEVYNLGAMSHVAVSFESPEYTADVDAMGTLRLLEAIRFLGLEKKTRFYQASTSELYGLVQEIPQKETTPFYPRSPYAVAKLYAYWITVNYRESYGMYACNGILFNHESPRRGETFVTRKITRAIANIAQGLESCLYLGNMDSLRDWGHAKDYVKMQWMMLQQEQPEDFVIATGVQYSVRQFVEMAAAQLGIKLRFEGTGVEEKGIVVSVTGHDAPGVKPGDVIIAVDPRYFRPAEVETLLGDPTKAHEKLGWKPEITLREMVSEMVANDLEAAKKHSLLKSHGYDVAIALES
# B5: Hs GMD wild type: GDP-mannose-4,6-dehydratase from Homo sapiens, wild type, SEQ ID NO: 9 (protein, listed as Homo sapiens)
# chain: MRNVALITGITGQDGSYLAEFLLEKGYEVHGIVRRSSSFNTGRIEHLYKNPQAHIEGNMKLHYGDLTDSTCLVKIINEVKPTEIYNLGAQSHVKISFDLAEYTADVDGVGTLRLLDAVKTCGLINSVKFYQASTSELYGKVQEIPQKETTPFYPRSPYGAAKLYAYWIVVNFREAYNLFAVNGILFNHESPRRGANFVTRKISRSVAKIYLGQLECFSLGNLDAKRDWGHAKDYVEAMWLMLQNDEPEDFVIATGEVHSVREFVEKSFLHIGKTIVWEGKNENEVGRCKETGKVHVTVDLKYYRPTEVDFLQGDCTKAKQKLNWKPRVAFDELVREMVHADVELMRTNPNA
# B6: Hs GMD M2: mutant human GMD targeting the GDP-L-fucose allosteric binding pocket, SEQ ID NO: 81 (protein)
# chain: B5 chain with H54A
# modifications: Homo sapiens GMD mutant
# B7: Hs GMD M3: mutant human GMD targeting the GDP-L-fucose allosteric binding pocket, SEQ ID NO: 83 (protein)
# chain: B5 chain with K201A
# modifications: Homo sapiens GMD mutant
# B8: Hs GMD M4: mutant human GMD targeting the GDP-L-fucose allosteric binding pocket, SEQ ID NO: 85 (protein)
# chain: B5 chain with R204A
# modifications: Homo sapiens GMD mutant
# B9: FutC5: α-1,2-fucosyltransferase candidate from Lachnospiraceae bacterium XBB2008, SEQ ID NO: 29; parent of ASR12 (protein)
# chain: MIILQMSGGLGNQMFQYALYLKLKKLGREVKFDDETSYELDNARPVQLAVFDITYPRATRQEVTDMRDSSPAWKDRIRRKLKGRNLKQYTEANYSYDEHVFELDDTYLRGYFQTEKYFSDIRDEIYKTYTMRKDLITEQTTQYEEDILSHENSVSIHIRRGDYMTIEGGEIYAGICTDEFYDSAIKYVLERHPDAVFYLFTNDSSWAEYFCNIHSDVNIHVVEGNTEYFGYLDMYLMSRCKHHIVANSSFSWWGAWLGRDADGMVIAPDPWFNCSNCADIHTDRMILIDPKGELLTDDKGVRNESEE
# modifications: Lachnospiraceae bacterium XBB2008
# notes: parent of ASR12
# B10: FutC10: α-1,2-fucosyltransferase candidate from Thermosynechococcus elongatus, SEQ ID NO: 39 (protein, listed as Thermosynechococcus elongatus)
# chain: MIIVRLCGGLGNQMFQYAAGLAAAHRIGSEVKFDTHWFDATCLHQGLELRRVFGLELPEPSSKDLRKVLGACVHPAVRRLLSRRLLRALRPKSLVIQPHFHYWTGFEHLTDNVYLEGYWQSERYFSNIADIIRQQFRFVEPLDPHNAALMDEMQSGVSVSLHIRRGDYFNNPQMRRVHGVDLSEYYPAAVATMIEKTNAERFYVFSDDPQWVLEHLKLPVSYTVVDHNRGAASYRDMQLMSACRHHIIANSTFSWWGAWLNPRPDKVVIAPRHWFNVDVFDTRDLYCPEWIVL
# B11: FutC2: α-1,2-fucosyltransferase candidate from Pisciglobus halotolerans, SEQ ID NO: 23 (protein)
# chain: MIYTRITSGLGNQMFQYAIAYSYSRKYDMPLILDLTNFKISKKRTYQLDKFKLNDYKKITFKNAPLEIKIFWLVEVLNMISIKLRKKEMKRKNNYNLKSTQFICEKYKEKYNINFDLTNKSLYLSGFWQSPLYFENYRDELIQQFSPNYVLSNKLKEYETKIINCRSVSVHIRRGDFLQHGLFKDVDYQKKAITYLEKKLDNPIFFFFSDDIEWTKEKFKNQKNCFFVSSDSKNSGIEEMYLMSKCENNIIANSTFSWWGAWLNQNQNKIVIAPSTGFGNKDILPKSWYTI
# modifications: Pisciglobus halotolerans
# Assay: GDP-L-fucose inhibition assay of GMD enzymes (GDP-4-keto-6-deoxymannose detection)
# Assay type: biochemical
# Conditions: 350 μM GDP-L-fucose; 1 mM GDP-mannose, 0.5 mg/mL GMD
# Protocol: To test for inhibition, the mutants were expressed and purified as described in Example 7, and assayed at a range of GDP-L-fucose concentrations. The assay conditions were as follows: 50 mM Tris pH 7.5, 1 mM GDP-mannose, 0.5 mM NADP^+, 0.5 mg/mL dehydratase (GMD) enzyme, and 0 μM, 70 μM or 350 μM GDP-L-fucose. The reactions were quenched at 99° C. for 10 minutes, and the enzymes' respective activities were analyzed using the nucleotide sugar LC-MS method by GDP-4-keto-6-deoxymannose detection.
Molecule,retained activity,decrease in activity [%]
B1,100%,
B2,50%,
B3,40%,
B4,,80
B5,less than 5%,
B6,80%,
B7,100%,
B8,100%,

# Assay: FutC candidate activity in vitro using the de novo synthesis pathway (2′-FL by HPLC)
# Assay type: biochemical
# Conditions: 0.2 mg/mL fucosyltransferase, 1 mM GDP-mannose, 80 mM lactose, room temperature, 16 hours
# Protocol: The final step in the novel path to 2′-FL requires an α-1,2-fucosyltransferase. Various FutC candidates were screened for soluble expression in E. coli and fucosyltransferase activity. The candidate enzymes show different solubilities and enzymatic activity for 2′-FL synthesis. For the candidates that have highly soluble expression, their activity was tested in vitro using the de novo synthesis pathway. The reaction conditions were: 50 mM Tris-HCl pH 8.0, 2 mM NADPH, 0.1 mM NADP^+, 1 mM GDP-mannose, 80 mM lactose, 0.9 mg/mL Ec Gmd (SEQ 11), 0.2 mg/mL Ec WcaG (SEQ ID NO: 7) and 0.2 mg/mL of the fucosyltransferase candidates. The reactions were incubated at room temperature for 16 hours. The reactions were quenched by heating at 99° C. for 10 minutes, and then analyzed by HPLC.
row,Molecule,"α-1,2-fucosyltransferase activity for 2′-FL production"
1,B9,"have α-1,2-fucosyltransferase activity for 2′-FL production"
2,B10,"have α-1,2-fucosyltransferase activity for 2′-FL production"
3,B11,"have α-1,2-fucosyltransferase activity for 2′-FL production"
